Assay results from the supplement of paper PMC7125110.
± gives the standard error. For some assays here: This sample holds only a part of the variants without activity.

B1: glmS ribozyme (parent)
chain: AUAAAAGCGCCAGAACUACAGAAAUGUAGUUGACGAGGAGGAGGUUUAUCGAAUUUUCGGCGGAUGCCUCCAAA

Experiments:
Details in all cases: with glucosamine-6-phosphate
glucosamine-6-phosphate [1] = variants of: B1; assay: self-cleavage kobs at 40 uM GlcN6P; higher = faster cleavage; RNA array
Summary of the method: (§1)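 kcat and KM were obtained from weighted Michaelis–Menten fits across concentrations of kobs values. Those came from one- or two-exponential decay fits to per-tile medians normalised to baseline and to non-cleaving reference variants. The variants were barcoded ribozymes transcribed in situ by E. coli RNA polymerase on sequenced MiSeq chips and tracked through a hybridised Cy3 probe at 37 °C, with 40 μM to 10 mM glucosamine-6-phosphate in HEPES/KCl/Mg(OAc)2 buffer flowed in.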

glucosamine-6-phosphate [2] = variants of: B1; assay: self-cleavage kobs at 10000 uM GlcN6P; higher = faster cleavage; RNA array
Summary of the method: as §1

glucosamine-6-phosphate [3] = variants of: B1; assay: self-cleavage kobs at 640 uM GlcN6P; higher = faster cleavage; RNA array
Summary of the method: as §1

glucosamine-6-phosphate [4] = variants of: B1; assay: self-cleavage kobs at 2500 uM GlcN6P; higher = faster cleavage; RNA array
Summary of the method: as §1

glucosamine-6-phosphate [5] = variants of: B1; assay: KM; higher = weaker cofactor use; RNA array
Summary of the method: as §1

glucosamine-6-phosphate [6] = variants of: B1; assay: self-cleavage kobs at 160 uM GlcN6P; higher = faster cleavage; RNA array
Summary of the method: as §1

glucosamine-6-phosphate [7] = variants of: B1; assay: kcat; higher = faster cleavage; RNA array
Summary of the method: as §1

Variant	self-cleavage kobs at 40 uM GlcN6P (glucosamine-6-phosphate [1]) [s⁻¹]	self-cleavage kobs at 10000 uM GlcN6P (glucosamine-6-phosphate [2]) [s⁻¹]	self-cleavage kobs at 640 uM GlcN6P (glucosamine-6-phosphate [3]) [s⁻¹]	self-cleavage kobs at 2500 uM GlcN6P (glucosamine-6-phosphate [4]) [s⁻¹]	KM (glucosamine-6-phosphate [5]) [µM]	self-cleavage kobs at 160 uM GlcN6P (glucosamine-6-phosphate [6]) [s⁻¹]	kcat (glucosamine-6-phosphate [7]) [s⁻¹]
A28C C34A G62C	< 1e-05	< 1e-05					
G51C G60U A64U	< 1e-05						
A42G G60U C68G	< 1e-05		< 1e-05				
A6U A15U A36G A52C	< 1e-05			< 1e-05			
G7U C8A A33U G43A U55A	< 1e-05	< 1e-05	< 1e-05	< 1e-05			
A36U A53U					148 ± 37		
A14C A64C G66A	< 1e-05					< 1e-05	
G29A A64U					593 ± 20		
G7U G41U A48U	< 1e-05						
A39G C71U	0.00144 ± 0.00017	0.0284 ± 0.0069	0.00783 ± 0.0012	0.0119 ± 0.0027	370 ± 140	0.00396 ± 0.00059	
A6C C58U	< 1e-05	< 1e-05				< 1e-05	
C16U A52U	< 1e-05	0.000274 ± 2.9e-05	4.82e-05 ± 1.2e-05	0.000132 ± 2.2e-05	5030 ± 320		0.00041 ± 1.4e-05
G43C G66A	< 1e-05						
A6C C11G A12G C70U	< 1e-05						
U45G A52C U55C C71U	< 1e-05						
A15U U46G G51U					56.5 ± 15		
C8U C11G C50U U56C U69G	4.97e-05 ± 2.2e-05						
A15G G37A A39C C61U U69G	< 1e-05						
A12U U30G G51C	< 1e-05		< 1e-05	< 1e-05			
U45C U56C		0.000319 ± 4.5e-05	5.37e-05 ± 1.2e-05	0.000149 ± 3e-05	5500 ± 810		0.000492 ± 4.3e-05
A14U U46A		0.000323 ± 3.5e-05	9.67e-05 ± 1.3e-05	0.000343 ± 3.4e-05	2000 ± 930	2.43e-05 ± 9.4e-06	0.000437 ± 0.0001
A6U C8G G38C G43A	< 1e-05	< 1e-05					
U31C G60C	< 1e-05	< 1e-05					

Variant	self-cleavage kobs at 40 uM GlcN6P (glucosamine-6-phosphate [1]) [s⁻¹]	self-cleavage kobs at 10000 uM GlcN6P (glucosamine-6-phosphate [2]) [s⁻¹]	self-cleavage kobs at 640 uM GlcN6P (glucosamine-6-phosphate [3]) [s⁻¹]	self-cleavage kobs at 2500 uM GlcN6P (glucosamine-6-phosphate [4]) [s⁻¹]	KM (glucosamine-6-phosphate [5]) [µM]	self-cleavage kobs at 160 uM GlcN6P (glucosamine-6-phosphate [6]) [s⁻¹]	kcat (glucosamine-6-phosphate [7]) [s⁻¹]
C11G G43U A48U C61G A64G	< 1e-05	< 1e-05	< 1e-05	< 1e-05			
A52C U65G					197 ± 67		
G40A G43U	< 1e-05	< 1e-05	< 1e-05			< 1e-05	
C10A A15U	< 1e-05		< 1e-05				
G13A C16G A64U	< 1e-05						
A14G G32C A53U		0.000144 ± 2.8e-05	4.08e-05 ± 2e-05	6.01e-05 ± 1.8e-05			0.000218 ± 7.2e-05
G44C C71G	< 1e-05	< 1e-05	< 1e-05	< 1e-05		< 1e-05	
A6U C16U G38A	< 1e-05		< 1e-05	< 1e-05			
C8A U45A A53U	< 1e-05						
G40A A53U	0.00015 ± 1.5e-05	0.00711 ± 0.001	0.00107 ± 0.00016	0.00268 ± 0.00057		0.000422 ± 0.00011	0.00621 ± 0.0028
G13U U55G	2.48e-05 ± 7.6e-06	0.00109 ± 0.00011	0.000195 ± 2.5e-05	0.000643 ± 7.1e-05	3830 ± 780	6.37e-05 ± 8.5e-06	0.00153 ± 0.00021
A6U G51U	< 1e-05	< 1e-05	< 1e-05	< 1e-05		< 1e-05	
G37A C50U	< 1e-05			< 1e-05		< 1e-05	
G9C G59C	< 1e-05	< 1e-05	< 1e-05	< 1e-05		< 1e-05	
U54G G62C U69C	< 1e-05	< 1e-05					
C50A G51C	< 1e-05	< 1e-05					
U55G C71U	0.00104 ± 0.00015	0.034 ± 0.0078	0.00353 ± 0.0005	0.0044 ± 0.00066		0.00128 ± 0.00022	
A14C G37A		0.000388 ± 6.8e-05	8.51e-05 ± 1.4e-05	0.000201 ± 3e-05		6.1e-05 ± 1.7e-05	0.000437 ± 0.00013
C16U G41A U56C	< 1e-05	3.75e-05 ± 1.4e-05					
G43C U57A C70G	< 1e-05		< 1e-05	< 1e-05			
C16G U65C C71G	< 1e-05	< 1e-05					
C16G C67U	4.87e-05 ± 9.4e-06	0.000642 ± 8.6e-05	0.000318 ± 3.4e-05	0.000504 ± 6.2e-05	736 ± 160	0.000106 ± 1.5e-05	0.000669 ± 7.7e-05
